Test results: patent US20060222593A1
Values joined by “and” are separate entries in the source; they are usually repeats but may differ in a detail not shown here. Identical values can stand only once. Like-named read-outs stand apart in the source and are kept apart here. Square brackets hold non-standard residues; d marks the D form. Ends that are not written are not given here.

T1: ST receptor (rat intestinal membrane) (rat), P23897
T1 chain: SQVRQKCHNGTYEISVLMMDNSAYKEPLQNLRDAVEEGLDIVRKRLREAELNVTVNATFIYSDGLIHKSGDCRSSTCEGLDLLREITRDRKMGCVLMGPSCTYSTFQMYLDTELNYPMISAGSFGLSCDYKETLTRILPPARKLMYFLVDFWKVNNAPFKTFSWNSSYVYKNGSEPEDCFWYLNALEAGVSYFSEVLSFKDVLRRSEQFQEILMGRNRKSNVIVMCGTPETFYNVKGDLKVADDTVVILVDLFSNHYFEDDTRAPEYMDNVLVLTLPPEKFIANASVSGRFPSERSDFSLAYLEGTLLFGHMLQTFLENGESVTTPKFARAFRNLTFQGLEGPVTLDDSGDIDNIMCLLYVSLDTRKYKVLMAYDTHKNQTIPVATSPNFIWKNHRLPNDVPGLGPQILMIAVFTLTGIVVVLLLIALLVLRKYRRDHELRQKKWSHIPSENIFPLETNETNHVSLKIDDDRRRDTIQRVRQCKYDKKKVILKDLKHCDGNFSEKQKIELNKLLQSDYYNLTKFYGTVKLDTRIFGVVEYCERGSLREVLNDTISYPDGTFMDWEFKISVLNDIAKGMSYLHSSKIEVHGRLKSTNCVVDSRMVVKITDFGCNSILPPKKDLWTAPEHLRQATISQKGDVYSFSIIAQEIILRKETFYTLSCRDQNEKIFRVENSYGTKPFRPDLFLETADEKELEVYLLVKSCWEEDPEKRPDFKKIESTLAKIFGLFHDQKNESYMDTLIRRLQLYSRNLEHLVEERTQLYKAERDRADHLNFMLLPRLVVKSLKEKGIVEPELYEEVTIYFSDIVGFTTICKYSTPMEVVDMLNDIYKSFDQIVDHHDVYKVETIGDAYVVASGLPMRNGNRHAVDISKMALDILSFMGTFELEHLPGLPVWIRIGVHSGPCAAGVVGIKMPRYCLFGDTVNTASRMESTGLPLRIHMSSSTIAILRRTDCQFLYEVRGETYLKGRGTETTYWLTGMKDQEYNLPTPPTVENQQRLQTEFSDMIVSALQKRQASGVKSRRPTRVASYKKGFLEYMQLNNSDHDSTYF


Legend:
[1] = target: T1, ST receptor (rat intestinal membrane) …; assay: radioactive binding assay, labelled compound ca. 0.05 nM on rat intestinal membrane, filtration
[2] = target: T1, ST receptor (rat intestinal membrane) …; assay: radioligand competition binding against [125I]ST1-17 on rat intestinal membrane
[3] = target: T1, ST receptor (rat intestinal membrane) …

Binder | Ki [2] | other results
CCELCCNPACAGCY (modifications not checked) [99mTc-labelled CA1-ST5-18] | – | binding, % of total added [1]: 6%
CCELCCNPACAGCY (modifications not checked) [CA3-ST5-18] | 0.8 nM | –
CCELCCNPACAGCY (modifications not checked) [CA1-ST5-18] | 2.8 nM | Ki [3]: 2.8 nM and 3.5 nM; fold reduction in binding efficacy against the unconjugated ST peptide [2]: 10 fold
GGG[dE][dE][dE]CCELCCNPACAGCY (not fully specified (N-terminus); cysteine pairing not given here) [CA1-(Gly)3-(D-Glu)3-ST5-18] | 1 nM | –
CCELCCNPACAGCY (modifications not checked) [ST5-18] | 0.4 nM | –
KKKKKKGCCELCCNPACAGCY (modifications not checked) [CA1-(Lys)6-Gly-ST5-18] | 72 nM | –
